pKd: −log10 of the molar value. Where two headings read alike, the source gives them in different places.
What was measured:
[1] = molecular target: TGF-β2TM, variant of TGF-β2 bearing K25R, I92V, and K94R substitutions (human); assay: SPR
[2] = molecular target: Transforming growth factor β2 (TGF-β2), recombinant human (human) (UniProt P61812); assay: SPR
[3] = molecular target: TGF-β2TM, variant of TGF-β2 bearing K25R, I92V, and K94R substitutions (human); assay: SPR; remark: listed apart in the source
[4] = molecular target: Transforming growth factor β2 (TGF-β2), recombinant human (human) (UniProt P61812); assay: SPR; remark: listed apart in the source
[5] = molecular target: Transforming growth factor β2 (TGF-β2), recombinant human (human) (UniProt P61812); assay: ITC
[6] = molecular target: TGF-β2TM/TβRII binary complex (UniProt P37173); assay: SEC-MALS
[7] = molecular target: TGF-β2TM/TβRII binary complex (UniProt P37173); assay: SEC
[8] = molecular target: TGF-β2TM/TβRII binary complex (UniProt P37173); assay: ITC

Substance “betaglycan zona pellucida domain (BGZP) (from UniProt P26342 450-761) (domain or fragment)” has a pKd [1] of 6.54, an apparent KD with 4 μM TβRII [2] of 0.6 µM and a pKd [3] of 6.54. For the same substance, the pKd [4] was 6.35.
Substance “C-terminal portion of the betaglycan zona pellucida domain (BG_(ZP-C)) (from UniProt P26342 589-761) (domain or fragment)” has a pKd [1] of 6.49, an apparent KD with 2 μM TβRII [2] of 0.6 µM and a pKd [4] of 6.35.
Work on “full-length betaglycan extracellular domain (BG_(O-ZP)) (from UniProt P26342 24-761) (domain or fragment)” yielded a pKd [5] of 6.96, a dH [5] of -52.6 kJ mol^–1 and a stoichiometry N [5] of 1.04 sites. The stoichiometry N (BG (O-ZP) per TGF-β2TM homodimer) [6] was 1, the stoichiometry N (BG (O-ZP) per TGF-β2TM homodimer) [7] was 1 and the pKd [1] was 8.26.
“betaglycan orphan domain (BGO), produced in E. coli (from UniProt P26342 24-384) (domain or fragment)” was tested, and the stoichiometry N (BGO per TGF-β2TM homodimer) [6] was 1, the stoichiometry N (BGO per TGF-β2TM homodimer) [7] was 1 and the pKd [1] was 7.01.
Substance “betaglycan orphan domain (BGO), produced in HEK-293 expi cells (from UniProt P26342 24-383) (domain or fragment)” has a pKd [8] of 7.09, a dH [8] of -38.8 kJ mol^–1 and a stoichiometry N [8] of 1.07 sites.

Reference: PMC5551644
